In patent publication US20030068675, “Position dependent recognition of GNN nucleotide triplets by zinc fingers” (published 2003) one finds Kd data, which are given here for 15 molecules.

What all share (experiment): EMSA
What all share (conditions): tags: MBP fusion

For data set [1], the target named is T1, ZFP SBS#1487 (synthetic).
T1 chain: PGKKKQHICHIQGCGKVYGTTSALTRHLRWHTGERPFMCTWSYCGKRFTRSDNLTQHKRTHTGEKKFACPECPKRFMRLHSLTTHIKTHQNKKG
The procedure, abridged: (§1)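 Purified ZFP was titrated against labeled double-stranded target (1 nM or lower, at least 10-fold below expected Kd) carrying the natural binding site with flanks. Binding buffer was 10 mM Tris pH 7.5, 100 mM KCl, 1 mM MgCl2, 0.1 mM ZnCl2, 5 mM DTT, 10% glycerol, 0.02% BSA, with equilibration for at least 45 min. Bound and free target were separated on a 10% polyacrylamide gel.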

In data set [2] the target is T2, ZFP SBS#1473 (synthetic).
T2 chain: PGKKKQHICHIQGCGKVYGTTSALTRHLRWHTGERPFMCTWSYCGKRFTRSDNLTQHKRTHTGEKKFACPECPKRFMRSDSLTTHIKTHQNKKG
In short, it runs like this:
as §1

In data set [3] the target is T3, ZFP SBS#1474 (synthetic).
T3 chain: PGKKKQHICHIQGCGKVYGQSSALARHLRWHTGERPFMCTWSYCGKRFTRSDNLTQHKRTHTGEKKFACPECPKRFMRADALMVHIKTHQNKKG
In short, it runs like this:
as §1

Data set [4] deals with T4, ZFP SBS#1476 (synthetic).
T4 chain: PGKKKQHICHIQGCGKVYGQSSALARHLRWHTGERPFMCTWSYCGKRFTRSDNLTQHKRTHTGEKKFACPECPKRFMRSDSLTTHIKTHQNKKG
The procedure, abridged: as §1

Data set [5] addresses T5, ZFP SBS#1475 (synthetic).
T5 chain: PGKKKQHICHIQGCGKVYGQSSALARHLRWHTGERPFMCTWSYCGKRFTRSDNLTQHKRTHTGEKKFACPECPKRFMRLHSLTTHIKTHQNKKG
The procedure, abridged:
as §1

The target in data set [6] is T6, ZFP SBS#1472 (synthetic).
T6 chain: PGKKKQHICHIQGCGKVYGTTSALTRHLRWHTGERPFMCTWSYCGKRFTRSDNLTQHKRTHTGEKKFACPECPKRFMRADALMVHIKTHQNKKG
In short, it runs like this:
as §1

Data set [7] concerns the target T7, ZFP SBS#1470 (synthetic).
T7 chain: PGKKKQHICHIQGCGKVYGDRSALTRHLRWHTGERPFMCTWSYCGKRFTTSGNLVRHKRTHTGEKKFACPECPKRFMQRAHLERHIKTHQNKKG
The procedure, abridged:
as §1

Data set [8] has as its target T8, ZFP SBS#1469 (synthetic).
T8 chain: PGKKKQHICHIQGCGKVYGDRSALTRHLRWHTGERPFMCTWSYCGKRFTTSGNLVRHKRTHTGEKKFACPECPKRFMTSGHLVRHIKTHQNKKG
The procedure, abridged: as §1

For data set [9], the target named is T9, ZFP SBS#1468 (synthetic).
T9 chain: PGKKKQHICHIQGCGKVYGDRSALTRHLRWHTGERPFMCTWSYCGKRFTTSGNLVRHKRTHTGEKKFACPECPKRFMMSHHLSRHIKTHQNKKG
The procedure, abridged:
as §1

In data set [10] the target is ZFP SBS#1454 (synthetic). The procedure, abridged:
as §1

Data set [11] has as its target ZFP SBS#1456 (synthetic). The procedure, abridged: as §1
Data set [12] deals with ZFP SBS#1261 (synthetic). The procedure, abridged: as §1
The target in data set [13] is ZFP SBS#558 (synthetic). In short, it runs like this: as §1
Chain of ZFP SBS#558 (synthetic) (chain, as listed by the source): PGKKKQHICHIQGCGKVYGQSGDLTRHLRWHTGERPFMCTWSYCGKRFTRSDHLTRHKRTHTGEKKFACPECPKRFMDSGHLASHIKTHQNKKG
Data set [14] addresses ZFP SBS#1263 (synthetic). In short, it runs like this:
as §1

The target in data set [15] is ZFP SBS#1262 (synthetic). In short, it runs like this: as §1
Chain of ZFP SBS#1262 (synthetic) (chain, as listed by the source): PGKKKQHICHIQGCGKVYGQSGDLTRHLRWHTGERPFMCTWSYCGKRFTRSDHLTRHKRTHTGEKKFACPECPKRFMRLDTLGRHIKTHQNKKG
For data set [16], the target named is T10, ZFP SBS#1464 (synthetic).
T10 chain: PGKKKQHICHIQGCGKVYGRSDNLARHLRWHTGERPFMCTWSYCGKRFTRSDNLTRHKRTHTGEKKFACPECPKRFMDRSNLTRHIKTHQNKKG
The procedure, abridged:
as §1

The target in data set [17] is T11, ZFP SBS#1461 (synthetic).
T11 chain: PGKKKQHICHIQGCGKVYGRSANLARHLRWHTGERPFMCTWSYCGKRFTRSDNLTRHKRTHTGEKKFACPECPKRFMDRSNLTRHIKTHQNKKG
The procedure, abridged: as §1

Data set [18] concerns the target T12, ZFP SBS#1465 (synthetic).
T12 chain: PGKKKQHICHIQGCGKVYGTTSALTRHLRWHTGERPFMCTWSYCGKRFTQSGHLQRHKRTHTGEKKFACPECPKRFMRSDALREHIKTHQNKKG
In short, it runs like this: as §1

The target of data set [19] is T13, ZFP SBS#1466 (synthetic).
T13 chain: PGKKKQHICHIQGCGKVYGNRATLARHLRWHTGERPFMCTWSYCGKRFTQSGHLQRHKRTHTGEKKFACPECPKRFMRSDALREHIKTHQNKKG
In short, it runs like this:
as §1

Data set [20] addresses ZFP SBS#1485 (synthetic). In short, it runs like this: as §1
Data set [21] deals with ZFP SBS#1484 (synthetic). In short, it runs like this:
as §1

In data set [22] the target is T14, ZFP SBS#1490 (synthetic).
T14 chain: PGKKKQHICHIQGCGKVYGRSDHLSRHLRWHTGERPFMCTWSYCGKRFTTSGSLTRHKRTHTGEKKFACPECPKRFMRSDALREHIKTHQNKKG
The procedure, abridged:
as §1

Data set [23] deals with T15, ZFP SBS#1471 (synthetic).
T15 chain: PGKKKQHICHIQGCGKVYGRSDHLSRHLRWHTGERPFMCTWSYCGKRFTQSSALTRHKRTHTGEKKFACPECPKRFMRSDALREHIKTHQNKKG
The procedure, abridged: as §1

For data set [24], the target named is ZFP SBS#1463 (synthetic). In short, it runs like this: as §1
Data set [25] concerns the target T16, ZFP SBS#1481 (synthetic).
T16 chain: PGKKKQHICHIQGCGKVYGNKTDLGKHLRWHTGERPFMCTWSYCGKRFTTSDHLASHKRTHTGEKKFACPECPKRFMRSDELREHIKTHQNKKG
In short, it runs like this:
as §1

Data set [26] has as its target T17, ZFP SBS#1479 (synthetic).
T17 chain: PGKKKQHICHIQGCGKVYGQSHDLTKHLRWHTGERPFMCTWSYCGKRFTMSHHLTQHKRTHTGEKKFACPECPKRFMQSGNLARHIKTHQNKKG
The procedure, abridged:
as §1

Data set [27] concerns the target T18, ZFP SBS#1480 (synthetic).
T18 chain: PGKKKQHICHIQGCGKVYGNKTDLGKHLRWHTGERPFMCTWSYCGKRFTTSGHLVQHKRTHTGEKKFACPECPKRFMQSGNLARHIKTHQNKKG
The procedure, abridged:
as §1

The target in data set [28] is T19, ZFP SBS#1482 (synthetic).
T19 chain: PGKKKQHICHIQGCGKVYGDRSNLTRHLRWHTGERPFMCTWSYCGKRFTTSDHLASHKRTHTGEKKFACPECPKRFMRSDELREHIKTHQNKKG
In short, it runs like this:
as §1

Data set [29] deals with T20, ZFP SBS#1483 (synthetic).
T20 chain: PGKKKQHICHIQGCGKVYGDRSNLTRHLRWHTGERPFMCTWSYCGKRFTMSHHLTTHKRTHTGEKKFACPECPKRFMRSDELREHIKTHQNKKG
The procedure, abridged: as §1

The target of data set [30] is T21, ZFP SBS#1491 (synthetic).
T21 chain: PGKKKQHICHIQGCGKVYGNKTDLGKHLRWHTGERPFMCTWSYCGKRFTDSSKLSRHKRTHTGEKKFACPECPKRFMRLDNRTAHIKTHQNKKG
In short, it runs like this: as §1

Data set [31] concerns the target ZFP SBS#1462 (synthetic). In short, it runs like this:
as §1

The target in data set [32] is ZFP SBS#1455 (synthetic). In short, it runs like this:
as §1

In data set [33] the target is T22, ZFP SBS#1477 (synthetic).
T22 chain: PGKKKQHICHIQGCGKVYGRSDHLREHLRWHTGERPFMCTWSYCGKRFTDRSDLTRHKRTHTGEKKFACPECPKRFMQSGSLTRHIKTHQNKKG
In short, it runs like this: as §1

The term Kd denotes the concentration at which binding is half-saturated.

Chain of ZFP SBS#1462 (synthetic) (chain, as listed by the source): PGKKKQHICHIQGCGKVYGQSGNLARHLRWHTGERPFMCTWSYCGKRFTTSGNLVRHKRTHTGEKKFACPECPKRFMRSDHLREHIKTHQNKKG
Chain of ZFP SBS#1484 (synthetic) (chain, as listed by the source): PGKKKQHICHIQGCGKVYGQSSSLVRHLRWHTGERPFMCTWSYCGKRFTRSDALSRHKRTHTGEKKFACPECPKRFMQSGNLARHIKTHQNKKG
Chain of ZFP SBS#1456 (synthetic) (chain, as listed by the source): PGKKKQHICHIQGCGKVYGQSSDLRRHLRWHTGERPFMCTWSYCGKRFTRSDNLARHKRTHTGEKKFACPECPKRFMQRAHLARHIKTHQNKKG
Chain of ZFP SBS#1455 (synthetic) (chain, as listed by the source): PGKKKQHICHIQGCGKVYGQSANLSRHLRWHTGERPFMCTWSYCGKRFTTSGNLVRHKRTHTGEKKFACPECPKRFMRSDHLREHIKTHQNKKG

B1: TTGAAGGTT (dsDNA)
DNA 1: TTGAAGGTT
DNA 2: AACCTTCAA
Regarding B1, the Kd turned out to be 0.188 nM in data set [1]; 0.47 nM in data set [2]; 1.39 nM in data set [3]; 0.305 nM in data set [4]; 0.39 nM in data set [5]; 3.22 nM in data set [6].

B2: GGTGATGTC (dsDNA)
DNA 1: GGTGATGTC
DNA 2: GACATCACC
B2: the Kd came to 0.156 nM in data set [7], 0.28 nM in data set [8] and 0.08 nM in [9].

B3: GGAGAGGCT (dsDNA)
DNA 1: GGAGAGGCT
DNA 2: AGCCTCTCC
Take B3: the Kd in data set [10] was found to be 0.01 nM; in data set [11] it was 0.016 nM.

B4: TGCGGGGCA (dsDNA)
DNA 1: TGCGGGGCA
DNA 2: TGCCCCGCA
For the molecule B4, the Kd in [12] was found to be 0.2 nM; in [13], 21 nM; in [14], 21 nM; in [15], 3 nM.

B5: GACGAGGAG (dsDNA)
DNA 1: GACGAGGAG
DNA 2: CTCCTCGTC
Take B5: the Kd was 0.002 nM in [16] and 0.014 nM in data set [17].

B6: CTGGGAGTT (dsDNA)
DNA 1: CTGGGAGTT
DNA 2: AACTCCCAG
Take B6: the Kd worked out at 0.018 nM in data set [18] and 0.017 nM in data set [19].

B7: AAGTGAGCT (dsDNA)
DNA 1: AAGTGAGCT
DNA 2: AGCTCACTT
B7: in data set [20], the Kd was determined as 1.54 nM. This lies in the single-digit nanomolar range.

B8: GAAGTGGTA (dsDNA)
DNA 1: GAAGTGGTA
DNA 2: TACCACTTC
On to B8, for which binding in data set [21] was put at a Kd of 0.01 nM.

B9: CTGGTTGGG (dsDNA)
DNA 1: CTGGTTGGG
DNA 2: CCCAACCAG
On to B9, for which the Kd in data set [22] is 0.04 nM; in [23] it was 0.09 nM.

B10: GAGGCTGTT (dsDNA)
DNA 1: GAGGCTGTT
DNA 2: AACAGCCTC
For the molecule B10, in data set [24], the Kd came out at 0.003 nM.

B11: GAAAGTTCA (dsDNA)
DNA 1: GAAAGTTCA
DNA 2: TGAACTTTC
In the case of B11, the Kd is 37 nM in data set [25], 37 nM in [26] and 62.5 nM in data set [27].

B12: CCGTGTGAC (dsDNA)
DNA 1: CCGTGTGAC
DNA 2: GTCACACGG
On to B12, for which the results for the Kd in data set [28] and in [29] were 111 nM and 20.8 nM, respectively.

B13: AAGGGTTCA (dsDNA)
DNA 1: AAGGGTTCA
DNA 2: TGAACCCTT
In [30], B13 gave a Kd of 4.12 nM.

B14: CGGGATGAA (dsDNA)
DNA 1: CGGGATGAA
DNA 2: TTCATCCCG
As to B14, the Kd in data set [31] turned out to be 0.05 nM; in [32] it was 0.043 nM.

B15: GCAGCCCGG (dsDNA)
DNA 1: GCAGCCCGG
DNA 2: CCGGGCTGC
In [33], B15 had a Kd of 2.31 nM. In other words, the single-digit nanomolar range.
